According to patent US20030088057A1, “PEPTIDE SUBSTRATES PHOSPHORYLATED BY P21-ACTIVAGED PROTEIN KINASE STATEMENT REGARDING FEDERALLY SPONSORED REASEARCH OR DEVELOPMENT” (priority 1998, published 2003):

B1: prolactin: rat prolactin (protein)
chain: LPVCSGGDCQTPLPELFDRVVMLSHYIHTLYTDMFIEFDKQYVQDREFIAKAINDCPTSSLATPEDKEQAQKVPPEVLLNLILSLVHSWNDPLFQLITGLGGIHEAPDAIISRAKEIEEQNKRLLEGIEKIISQAYPEAKGNEIYLVWSQLPSLQGVDEESKDLAFYNNIRCLRRDSHKVDNYLKFLRCQIVHKNNC
B2: myelin basic protein: bovine myelin basic protein, purchased from Sigma (protein)
chain: AAQKRPSQRSKYLASASTMDHARHGFLPRHRDTGILDSLGRFFGSDRGAPKRGSGKDGHHAARTTHYGSLPQKAQGHRPQDENPVVHFFKNIVTPRTPPPSQGKGRGLSLSRFSWGAEGQKPGFGYGGRASDYKSAHKGLKGHDAQGTLSKIFKLGGRDSRSGSPMARR

Test system: γ-PAK
Experiment: Phosphorylation of protein substrates by γ-PAK
Format: biochemical, rabbit
Details: for 32P incorporated: 2 μg protein substrate, 20 units active γ-PAK, 15 min at 30° C.; for rel rate: relative to histone 2B = 100
Procedure: D. Phosphorylation Assays. Phosphorylation of protein substrates was carried out in 35 μL reaction mixtures containing 20 mM Tris-HCl, pH 7.4, 10 mM MgCl2, 30 mM 2-mercaptoethanol, 0.2 mM ATP (specific activity =1000 cpm/pmol), 2 μg of protein substrate, and 20 units of active γ-PAK (an enzyme unit is defined as the amount of enzyme that incorporates 1 pmol of phosphate into histone IIAS/ min at 30°. Under these conditions, phosphate incorporation was linear and initial rates of phosphorylation were measured. After incubation at 30° C. for 15 min, reactions were terminated by the addition of 5 μL of 100 mM nonlabeled ATP and sample buffer for gel electrophoresis [Hathaway, G. M., et al., Methods Enzymol., 60:495-511 (1979)]. Reaction mixtures were subjected to SDS-PAGE on 15% polyacrylamide gels followed by autoradiography. Phosphorylation was quantified by excising the protein band and counting the incorporated ^32P in a liquid scintillation counter. The specific activity of γ-PAK was 400 pmol min^−1 μg^−1 as reported previously using 0.2 mM ATP and 1 mg/mL mixed histone as substrate [Rooney, R. D., et al., (1996), supra].
A number of proteins were examined as substrates, and their relative rates of phosphorylation were compared (Table 6).

Chain of γ-PAK (Q29502 249-524 limits assumed): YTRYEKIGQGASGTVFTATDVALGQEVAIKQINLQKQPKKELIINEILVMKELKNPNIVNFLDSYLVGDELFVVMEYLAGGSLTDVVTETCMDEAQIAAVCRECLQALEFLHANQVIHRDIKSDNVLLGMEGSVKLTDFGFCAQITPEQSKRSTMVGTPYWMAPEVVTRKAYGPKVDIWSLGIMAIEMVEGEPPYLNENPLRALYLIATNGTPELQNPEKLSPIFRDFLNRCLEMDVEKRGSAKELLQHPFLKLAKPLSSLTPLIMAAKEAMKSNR

Molecule	32P incorporated	rel rate
B1	1.8 pmol	17%
B2	4.2 pmol	37%
